The results in this text go back to patent publication US8715736B2, “Nanoparticle formulations for skin delivery” (Florida Agricultural and Mechanical University, priority 2009, dated 2014).

≈ marks a conversion by molar mass, not a printed value. Where no end group is shown, it is not given here.

Data set [1] can be described thus: Iso-electric point of CPP peptides (Table 1). The format is physicochemical. The text has this:
Celecoxib (CXB) was provided by Pfizer (Skokie, Ill.). The triglyceride Miglyol 812 was obtained from Sasol Germany GmbH (Witten, Germany) and Compritol 888 ATO was provided by Gattefosse (Saint Priest, France). The phospholipids 1-palmitoyl-2-oleoyl-phosphatidylcholine (POPC), 1,2-dioleoyl-sn-glycero-3-phosphoethanolamine (DOPE) and 1,2-di-(9Z-octadecenoyl)-sn-glycero-3-[(N-(5-amino-1-carboxypentyl)iminodiacetic acid)succinyl] (nickel salt) (DOGS-NTA-Ni) were purchased from Avanti Polar Lipids (USA). Cholesterol, Tween 80, pH 7.4 phosphate buffer saline (PBS), paraformaldehyde, tetrahydrofuran (THF), trifluoro acetic acid (TFA), and dialysis membranes (molecular weight cut off 12,400 daltons and flat width of 23 mm) were procured from Sigma-Aldrich Chemicals (St. Louis, USA). Polyoxyethylene-20 oleyl ether or Volpo-20 (Oleth-20) was a kind gift from Croda Inc (New Jersey, USA). Vivaspin centrifuge filters (molecular weight cut off 10,000 Daltons) was procured from Sartorius Ltd, (Stonehouse, UK). All other chemicals used herein were of analytical grade. All of the CPP peptides were synthesized by GenScript Corporation (NJ, USA). Sce Table 1 below for details of the composition, molecular weight and iso-electric points of the CPPs. Fluorescent Isothiocyanate (FITC), DID-oil and DIO fluorescent dyes were procured from Invitrogen (USA).

Data set [2] in a line: Solubility of CXB. The format is physicochemical.

For “RRRRRRRRRRRHHHHHH (synthetically generated peptide) [R11]”, the Iso-electric point in data set [1] stood at 13.4.

For “RRRRRRRRRRRRRRRHHHHHH (synthetically generated peptide) [R15]”, the Iso-electric point in data set [1] was determined as 13.5.

With `Cc1ccc(-c2cc(C(F)(F)F)nn2-c2ccc(S(N)(=O)=O)cc2)cc1` [CXB, Celecoxib], the solubility in data set [2] (0.1% w/v Volpo 20 in pH 7.4 PBS, aqueous with cosolvent or surfactant or cyclodextrin, in 0.1% Volpo 20 (receptor fluid, pH 7.4 PBS), read-out: saturation solubility) is 30 µg/mL (≈ 78.7 µM). For the same compound, in data set [2] (water), the solubility in water result was “insoluble in water”.

In the case of “YKALRISRKLAKHHHHHH (syntheticall generated peptide) [reference compound]”, the Iso-electric point in data set [1] is 11.6.

For the compound YGRKKRRQRRRHHHHHH [TAT], the Iso-electric point in data set [1] is reported as 12.7.

“RRRRRRRRHHHHHH (synthetically generated peptide) [R8]”: the Iso-electric point in data set [1] is 13.2.
